{
  "source": "patent US20060263802A1",
  "about": "(CRUCELL HOLLAND B V, published 2006)",
  "binders": {"B1": {"name": "human monoclonal antibody CRJA (antibody, V domains shown)", "VH": "EVQLLESGGGLVQPGGSLRLSCAASGFTFSNYAMSWVRQAPGKGLEWVSAISASGHSTYLADSVKGRFTISRDNSKNTLYLQMNSLRAEDTAVYYCAKDREVTMIVVLNGGFDYWGQGTRVTVSS", "VL": "EIVLTQSPATLSLSPGERATLACRASQTASRYLAWYQQKPGQAPRLLIYDTSNRATGIPARFSGSGSGTDFTLSISSLEPEDFAVYYCQQRFNWPWTFGQGTKVEFK"}},
  "assay_in_all_cases": "PEPSCAN ELISA, looped peptide, antibody 10 µg/ml",
  "key": {"[1]": {"molecular_target": "looped/cyclic peptide … (rabies virus strain ERA)"}, "[2]": {"molecular_target": "looped/cyclic peptide … (rabies virus strain ERA)", "remark": "listed apart in the source"}, "[3]": {"molecular_target": "looped/cyclic peptide … (rabies virus strain ERA)", "remark": "listed apart in the source"}, "[4]": {"molecular_target": "looped/cyclic peptide … (rabies virus strain ERA)", "remark": "listed apart in the source"}, "[5]": {"molecular_target": "looped/cyclic peptide … (rabies virus strain ERA)", "remark": "listed apart in the source"}, "[6]": {"molecular_target": "looped/cyclic peptide … (rabies virus strain ERA)", "remark": "listed apart in the source"}, "[7]": {"molecular_target": "looped/cyclic peptide … (rabies virus strain ERA)", "remark": "listed apart in the source"}, "[8]": {"molecular_target": "looped/cyclic peptide … (rabies virus strain ERA)", "remark": "listed apart in the source"}, "[9]": {"molecular_target": "looped/cyclic peptide … (rabies virus strain ERA)", "remark": "listed apart in the source"}, "[10]": {"molecular_target": "looped/cyclic peptide … (rabies virus strain ERA)", "remark": "listed apart in the source"}, "[11]": {"molecular_target": "looped/cyclic peptide … (rabies virus strain ERA)", "remark": "listed apart in the source"}, "[12]": {"molecular_target": "looped/cyclic peptide … (rabies virus strain ERA)", "remark": "listed apart in the source"}, "[13]": {"molecular_target": "looped/cyclic peptide … (rabies virus strain ERA)", "remark": "listed apart in the source"}, "[14]": {"molecular_target": "looped/cyclic peptide … (rabies virus strain ERA)", "remark": "listed apart in the source"}, "[15]": {"molecular_target": "looped/cyclic peptide … (rabies virus strain ERA)", "remark": "listed apart in the source"}, "[16]": {"molecular_target": "looped/cyclic peptide … (rabies virus strain ERA)", "remark": "listed apart in the source"}, "[17]": {"molecular_target": "looped/cyclic peptide … (rabies virus strain ERA)", "remark": "listed apart in the source"}, "[18]": {"molecular_target": "looped/cyclic peptide … (rabies virus strain ERA)", "remark": "listed apart in the source"}, "[19]": {"molecular_target": "looped/cyclic peptide … (rabies virus strain ERA)", "remark": "listed apart in the source"}, "[20]": {"molecular_target": "looped/cyclic peptide … (rabies virus strain ERA)", "remark": "listed apart in the source"}, "[21]": {"molecular_target": "looped/cyclic peptide … (rabies virus strain ERA)", "remark": "listed apart in the source"}, "[22]": {"molecular_target": "looped/cyclic peptide … (rabies virus strain ERA)", "remark": "listed apart in the source"}, "[23]": {"molecular_target": "looped/cyclic peptide … (rabies virus strain ERA)", "remark": "listed apart in the source"}, "[24]": {"molecular_target": "looped/cyclic peptide … (rabies virus strain ERA)", "remark": "listed apart in the source"}, "[25]": {"molecular_target": "looped/cyclic peptide … (rabies virus strain ERA)", "remark": "listed apart in the source"}, "[26]": {"molecular_target": "looped/cyclic peptide … (rabies virus strain ERA)", "remark": "listed apart in the source"}, "[27]": {"molecular_target": "looped/cyclic peptide … (rabies virus strain ERA)", "remark": "listed apart in the source"}, "[28]": {"molecular_target": "looped/cyclic peptide … (rabies virus strain ERA)", "remark": "listed apart in the source"}, "[29]": {"molecular_target": "looped/cyclic peptide … (rabies virus strain ERA)", "remark": "listed apart in the source"}, "[30]": {"molecular_target": "looped/cyclic peptide … (rabies virus strain ERA)", "remark": "listed apart in the source"}, "[31]": {"molecular_target": "looped/cyclic peptide … (rabies virus strain ERA)", "remark": "listed apart in the source"}, "[32]": {"molecular_target": "looped/cyclic peptide … (rabies virus strain ERA)", "remark": "listed apart in the source"}, "[33]": {"molecular_target": "looped/cyclic peptide … (rabies virus strain ERA)", "remark": "listed apart in the source"}, "[34]": {"molecular_target": "looped/cyclic peptide … (rabies virus strain ERA)", "remark": "listed apart in the source"}, "[35]": {"molecular_target": "looped/cyclic peptide … (rabies virus strain ERA)", "remark": "listed apart in the source"}, "[36]": {"molecular_target": "looped/cyclic peptide … (rabies virus strain ERA)", "remark": "listed apart in the source"}, "[37]": {"molecular_target": "looped/cyclic peptide … (rabies virus strain ERA)", "remark": "listed apart in the source"}, "[38]": {"molecular_target": "looped/cyclic peptide … (rabies virus strain ERA)", "remark": "listed apart in the source"}, "[39]": {"molecular_target": "looped/cyclic peptide … (rabies virus strain ERA)", "remark": "listed apart in the source"}, "[40]": {"molecular_target": "looped/cyclic peptide … (rabies virus strain ERA)", "remark": "listed apart in the source"}, "[41]": {"molecular_target": "looped/cyclic peptide … (rabies virus strain ERA)", "remark": "listed apart in the source"}, "[42]": {"molecular_target": "looped/cyclic peptide … (rabies virus strain ERA)", "remark": "listed apart in the source"}, "[43]": {"molecular_target": "looped/cyclic peptide … (rabies virus strain ERA)", "remark": "listed apart in the source"}, "[44]": {"molecular_target": "looped/cyclic peptide […] (rabies virus strain ERA)"}, "[45]": {"molecular_target": "looped/cyclic peptide … (rabies virus strain ERA)", "remark": "listed apart in the source"}, "[46]": {"molecular_target": "looped/cyclic peptide … (rabies virus strain ERA)", "remark": "listed apart in the source"}, "[47]": {"molecular_target": "looped/cyclic peptide … (rabies virus strain ERA)", "remark": "listed apart in the source"}, "[48]": {"molecular_target": "looped/cyclic peptide … (rabies virus strain ERA)", "remark": "listed apart in the source"}, "[49]": {"molecular_target": "looped/cyclic peptide … (rabies virus strain ERA)", "remark": "listed apart in the source"}, "[50]": {"molecular_target": "looped/cyclic peptide … (rabies virus strain ERA)", "remark": "listed apart in the source"}, "[51]": {"molecular_target": "looped/cyclic peptide … (rabies virus strain ERA)", "remark": "listed apart in the source"}, "[52]": {"molecular_target": "looped/cyclic peptide … (rabies virus strain ERA)", "remark": "listed apart in the source"}, "[53]": {"molecular_target": "looped/cyclic peptide … (rabies virus strain ERA)", "remark": "listed apart in the source"}, "[54]": {"molecular_target": "looped/cyclic peptide DIHHLSCPNNLVVED (rabies virus strain ERA)"}, "[55]": {"molecular_target": "looped/cyclic peptide … (rabies virus strain ERA)", "remark": "listed apart in the source"}, "[56]": {"molecular_target": "looped/cyclic peptide … (rabies virus strain ERA)", "remark": "listed apart in the source"}, "[57]": {"molecular_target": "looped/cyclic peptide … (rabies virus strain ERA)", "remark": "listed apart in the source"}, "[58]": {"molecular_target": "looped/cyclic peptide … (rabies virus strain ERA)", "remark": "listed apart in the source"}, "[59]": {"molecular_target": "looped/cyclic peptide … (rabies virus strain ERA)", "remark": "listed apart in the source"}, "[60]": {"molecular_target": "looped/cyclic peptide … (rabies virus strain ERA)", "remark": "listed apart in the source"}},
  "data": [
    {"binder": "B1", "values": [
      {"measurement": "OD value", "setting": "[1]", "result": 71, "unit": "OD"},
      {"measurement": "OD value", "setting": "[2]", "result": 72, "unit": "OD"},
      {"measurement": "OD value", "setting": "[3]", "result": 98, "unit": "OD"},
      {"measurement": "OD value", "setting": "[4]", "result": 93, "unit": "OD"},
      {"measurement": "OD value", "setting": "[5]", "result": 90, "unit": "OD"},
      {"measurement": "OD value", "setting": "[6]", "result": 38, "unit": "OD"},
      {"measurement": "OD value", "setting": "[7]", "result": 71, "unit": "OD"},
      {"measurement": "OD value", "setting": "[8]", "result": 58, "unit": "OD"},
      {"measurement": "OD value", "setting": "[9]", "result": 90, "unit": "OD"},
      {"measurement": "OD value", "setting": "[10]", "result": 82, "unit": "OD"},
      {"measurement": "OD value", "setting": "[11]", "result": 84, "unit": "OD"},
      {"measurement": "OD value", "setting": "[12]", "result": 100, "unit": "OD"},
      {"measurement": "OD value", "setting": "[13]", "result": 93, "unit": "OD"},
      {"measurement": "OD value", "setting": "[14]", "result": 65, "unit": "OD"},
      {"measurement": "OD value", "setting": "[15]", "result": 84, "unit": "OD"},
      {"measurement": "OD value", "setting": "[16]", "result": 92, "unit": "OD"},
      {"measurement": "OD value", "setting": "[17]", "result": 89, "unit": "OD"},
      {"measurement": "OD value", "setting": "[18]", "result": 90, "unit": "OD"},
      {"measurement": "OD value", "setting": "[19]", "result": 45, "unit": "OD"},
      {"measurement": "OD value", "setting": "[20]", "result": 58, "unit": "OD"},
      {"measurement": "OD value", "setting": "[21]", "result": 71, "unit": "OD"},
      {"measurement": "OD value", "setting": "[22]", "result": 78, "unit": "OD"},
      {"measurement": "OD value", "setting": "[23]", "result": 86, "unit": "OD"},
      {"measurement": "OD value", "setting": "[24]", "result": 88, "unit": "OD"},
      {"measurement": "OD value", "setting": "[25]", "result": 92, "unit": "OD"},
      {"measurement": "OD value", "setting": "[26]", "result": 100, "unit": "OD"},
      {"measurement": "OD value", "setting": "[27]", "result": 104, "unit": "OD"},
      {"measurement": "OD value", "setting": "[28]", "result": 108, "unit": "OD"},
      {"measurement": "OD value", "setting": "[29]", "result": 88, "unit": "OD"},
      {"measurement": "OD value", "setting": "[30]", "result": 83, "unit": "OD"},
      {"measurement": "OD value", "setting": "[31]", "result": 118, "unit": "OD"},
      {"measurement": "OD value", "setting": "[32]", "result": 87, "unit": "OD"},
      {"measurement": "OD value", "setting": "[33]", "result": 117, "unit": "OD"},
      {"measurement": "OD value", "setting": "[34]", "result": 100, "unit": "OD"},
      {"measurement": "OD value", "setting": "[35]", "result": 46, "unit": "OD"},
      {"measurement": "OD value", "setting": "[36]", "result": 51, "unit": "OD"},
      {"measurement": "OD value", "setting": "[37]", "result": 72, "unit": "OD"},
      {"measurement": "OD value", "setting": "[38]", "result": 62, "unit": "OD"},
      {"measurement": "OD value", "setting": "[39]", "result": 83, "unit": "OD"},
      {"measurement": "OD value", "setting": "[40]", "result": 89, "unit": "OD"},
      {"measurement": "OD value", "setting": "[41]", "result": 92, "unit": "OD"},
      {"measurement": "OD value", "setting": "[42]", "result": 92, "unit": "OD"},
      {"measurement": "OD value", "setting": "[43]", "result": 98, "unit": "OD"},
      {"measurement": "OD value", "setting": "[44]", "result": 186, "unit": "OD"},
      {"measurement": "OD value", "setting": "[45]", "result": 113, "unit": "OD"},
      {"measurement": "OD value", "setting": "[46]", "result": 86, "unit": "OD"},
      {"measurement": "OD value", "setting": "[47]", "result": 123, "unit": "OD"},
      {"measurement": "OD value", "setting": "[48]", "result": 117, "unit": "OD"},
      {"measurement": "OD value", "setting": "[49]", "result": 113, "unit": "OD"},
      {"measurement": "OD value", "setting": "[50]", "result": 151, "unit": "OD"},
      {"measurement": "OD value", "setting": "[51]", "result": 92, "unit": "OD"},
      {"measurement": "OD value", "setting": "[52]", "result": 38, "unit": "OD"},
      {"measurement": "OD value", "setting": "[53]", "result": 55, "unit": "OD"},
      {"measurement": "OD value", "setting": "[54]", "result": 62, "unit": "OD"},
      {"measurement": "OD value", "setting": "[55]", "result": 96, "unit": "OD"},
      {"measurement": "OD value", "setting": "[56]", "result": 92, "unit": "OD"},
      {"measurement": "OD value", "setting": "[57]", "result": 84, "unit": "OD"},
      {"measurement": "OD value", "setting": "[58]", "result": 96, "unit": "OD"},
      {"measurement": "OD value", "setting": "[59]", "result": 88, "unit": "OD"},
      {"measurement": "OD value", "setting": "[60]", "result": 74, "unit": "OD"}
    ]}
  ]
}
